Test results published in US20100209938A1.

Assays:
[1] = molecular target: α4YFP nAChR subunit (mouse) (UniProt O70174); test: pixel-by-pixel sensitized emission FRET (NFRET), whole-cell ROI, N2a cells
[2] = molecular target: α4YFP nAChR subunit (mouse) (UniProt O70174); test: pixel-by-pixel sensitized emission FRET, Gaussian fit of the NFRET distribution, N2a cells

Chain of β2CFP nAChR subunit (Q9ERK7 26-501): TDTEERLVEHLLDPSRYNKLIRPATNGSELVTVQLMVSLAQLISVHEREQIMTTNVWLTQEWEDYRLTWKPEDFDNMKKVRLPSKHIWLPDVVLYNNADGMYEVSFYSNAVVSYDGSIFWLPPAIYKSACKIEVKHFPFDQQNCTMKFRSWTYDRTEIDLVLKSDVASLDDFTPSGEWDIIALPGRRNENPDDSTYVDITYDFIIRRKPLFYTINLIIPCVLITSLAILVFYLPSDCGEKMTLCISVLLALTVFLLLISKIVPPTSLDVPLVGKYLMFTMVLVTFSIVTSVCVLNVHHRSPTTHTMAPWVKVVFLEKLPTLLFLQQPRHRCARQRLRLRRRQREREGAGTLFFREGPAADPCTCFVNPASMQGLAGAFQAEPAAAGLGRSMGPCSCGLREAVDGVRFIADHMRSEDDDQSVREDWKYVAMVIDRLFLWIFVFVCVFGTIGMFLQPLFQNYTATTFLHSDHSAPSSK
Chain of α4YFP nAChR subunit (mouse) (O70174 31-629): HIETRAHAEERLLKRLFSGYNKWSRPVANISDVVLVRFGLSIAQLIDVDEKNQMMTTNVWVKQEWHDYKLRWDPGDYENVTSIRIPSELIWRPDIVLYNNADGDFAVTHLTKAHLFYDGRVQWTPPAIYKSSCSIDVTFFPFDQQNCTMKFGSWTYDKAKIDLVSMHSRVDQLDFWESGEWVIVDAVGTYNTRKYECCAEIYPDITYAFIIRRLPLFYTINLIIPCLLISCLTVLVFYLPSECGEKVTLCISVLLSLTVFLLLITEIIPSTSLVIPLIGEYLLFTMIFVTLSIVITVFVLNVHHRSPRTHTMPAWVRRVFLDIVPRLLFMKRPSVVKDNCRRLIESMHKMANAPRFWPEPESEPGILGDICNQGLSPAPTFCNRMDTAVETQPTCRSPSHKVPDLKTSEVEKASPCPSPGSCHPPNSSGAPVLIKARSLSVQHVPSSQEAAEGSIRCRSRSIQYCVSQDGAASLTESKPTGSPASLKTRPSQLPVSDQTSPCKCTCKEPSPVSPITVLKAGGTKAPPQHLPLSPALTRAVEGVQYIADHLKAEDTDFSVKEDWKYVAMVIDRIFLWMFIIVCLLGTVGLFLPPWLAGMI

β2CFP nAChR subunit (from UniProt Q9ERK7 26-501) (receptor)
mean NFRET for all pixels [1]: 0.2
mean NFRET of first Gaussian component [2]: 0.19
mean NFRET of second Gaussian component [2]: 0.28
